From publication PMC3220584 (The Journal of Biological Chemistry, 2011)

Target: the molecule itself
Experiment: SEC-MALS

B1: human collagen VI α3(VI) N-terminal N9-N1 region (domain or fragment, UniProt P12111 237-2028, looked up)
chain: AQDSADIIFLIDGSNNTGSVNFAVILDFLVNLLEKLPIGTQQIRVGVVQFSDEPRTMFSLDTYSTKAQVLGAVKALGFAGGELANIGLALDFVVENHFTRAGGSRVEEGVPQVLVLISAGPSSDEIRYGVVALKQASVFSFGLGAQAASRAELQHIATDDNLVFTVPEFRSFGDLQEKLLPYIVGVAQRHIVLKPPTIVTQVIEVNKRDIVFLVDGSSALGLANFNAIRDFIAKVIQRLEIGQDLIQVAVAQYADTVRPEFYFNTHPTKREVITAVRKMKPLDGSALYTGSALDFVRNNLFTSSAGYRAAEGIPKLLVLITGGKSLDEISQPAQELKRSSIMAFAIGNKGADQAELEEIAFDSSLVFIPAEFRAAPLQGMLPGLLAPLRTLSGTPEVHSNKRDIIFLLDGSANVGKTNFPYVRDFVMNLVNSLDIGNDNIRVGLVQFSDTPVTEFSLNTYQTKSDILGHLRQLQLQGGSGLNTGSALSYVYANHFTEAGGSRIREHVPQLLLLLTAGQSEDSYLQAANALTRAGILTFCVGASQANKAELEQIAFNPSLVYLMDDFSSLPALPQQLIQPLTTYVSGGVEEVPLAQPESKRDILFLFDGSANLVGQFPVVRDFLYKIIDELNVKPEGTRIAVAQYSDDVKVESRFDEHQSKPEILNLVKRMKIKTGKALNLGYALDYAQRYIFVKSAGSRIEDGVLQFLVLLVAGRSSDRVDGPASNLKQSGVVPFIFQAKNADPAELEQIVLSPAFILAAESLPKIGDLHPQIVNLLKSVHNGAPAPVSGEKDVVFLLDGSEGVRSGFPLLKEFVQRVVESLDVGQDRVRVAVVQYSDRTRPEFYLNSYMNKQDVVNAVRQLTLLGGPTPNTGAALEFVLRNILVSSAGSRITEGVPQLLIVLTADRSGDDVRNPSVVVKRGGAVPIGIGIGNADITEMQTISFIPDFAVAIPTFRQLGTVQQVISERVTQLTREELSRLQPVLQPLPSPGVGGKRDVVFLIDGSQSAGPEFQYVRTLIERLVDYLDVGFDTTRVAVIQFSDDPKVEFLLNAHSSKDEVQNAVQRLRPKGGRQINVGNALEYVSRNIFKRPLGSRIEEGVPQFLVLISSGKSDDEVDDPAVELKQFGVAPFTIARNADQEELVKISLSPEYVFSVSTFRELPSLEQKLLTPITTLTSEQIQKLLASTRYPPPAVESDAADIVFLIDSSEGVRPDGFAHIRDFVSRIVRRLNIGPSKVRVGVVQFSNDVFPEFYLKTYRSQAPVLDAIRRLRLRGGSPLNTGKALEFVARNLFVKSAGSRIEDGVPQHLVLVLGGKSQDDVSRFAQVIRSSGIVSLGVGDRNIDRTELQTITNDPRLVFTVREFRELPNIEERIMNSFGPSAATPAPPGVDTPPPSRPEKKKADIVFLLDGSINFRRDSFQEVLRFVSEIVDTVYEDGDSIQVGLVQYNSDPTDEFFLKDFSTKRQIIDAINKVVYKGGRHANTKVGLEHLRVNHFVPEAGSRLDQRVPQIAFVITGGKSVEDAQDVSLALTQRGVKVFAVGVRNIDSEEVGKIASNSATAFRVGNVQELSELSEQVLETLHDAMHETLCPGVTDAAKACNLDVILGFDGSRDQNVFVAQKGFESKVDAILNRISQMHRVSCSGGRSPTVRVSVVANTPSGPVEAFDFDEYQPEMLEKFRNMRSQHPYVLTEDTLKVYLNKFRQSSPDSVKVVIHFTDGADGDLADLHRASENLRQEGVRALILVGLERVVNLERLMHLEFGRGFMYDRPLRLNLLDLDYELAEQLDNIAEKA
stoichiometry N: 2
